The target in assay [1] is Purified MDM2 (1-125) protein (human MDM2 1-125 sequence comprising a modified TEV cleavage site, pNIC-GST fusion) (human) (UniProt Q00987). Description: competitive fluorescence anisotropy (FP) against FAM-labeled 12/1 peptide on MDM2 (1-125); apparent Kd. (In general: Polarisation of emitted light reports the rotation of a fluorescent probe.)
Assay [2] concerns the target MDM2 (in HCT116 cells) (human) (UniProt Q00987). Description: cell-based or functional assay.

Purified MDM2 (1-125) protein (human MDM2 1-125 sequence comprising a modified TEV cleavage site, pNIC-GST fusion) (human), sequence (Q00987 1-125 limits assumed): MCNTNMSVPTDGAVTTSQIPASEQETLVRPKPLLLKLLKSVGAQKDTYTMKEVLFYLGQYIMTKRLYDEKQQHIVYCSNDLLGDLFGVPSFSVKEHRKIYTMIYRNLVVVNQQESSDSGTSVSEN

“Acetyl-^DPMI-δ-(6-10 olefin staple) (D-K9D-Q, D-R12D-S)-NH2 (peptide)”: the Kd in assay [1] was 258 nM.
Same read-out and setting: in the case of “Acetyl-^DPMI-δ-(6-10 olefin staple) (D-K9D-Q, D-R12D-S) (D-A)-(D-F)-(D-A)-(D-Ala)-(D-A)-(D-A) polypeptide tail)-NH2” it was 30 nM.
Turning to “^DPMI-δ-(6-10 olefin staple)-NH2 (peptide)”, in assay [1], the Kd was determined as 118 nM.
As for “^DPMI-δ-(5-12 olefin staple)-NH2 (peptide)”, in assay [1], the Kd is 33.9 nM. In assay [2], this substance had a p53 activity EC50 (µM) (0% FBS, 4 h) of 13.6 µM and a p53 activity EC50 (µM) (10% FBS, 16 h) of 30.8 µM.
With “Acetyl-^DPMI-δ-(6-10 olefin staple) (D-K9D-Q, D-R12D-S, 3x(D-Ala)-(D-Glu)-2x(D-Ala) polypeptide tail)-NH2”, the Kd in assay [1] worked out at 0.43 nM.
On the same count and under the same terms, the figure for “Acetyl-^DPMI-δ-(6-10 olefin staple) (D-K9D-Q, D-R12D-S, 3x(D-A) polypeptide tail)-NH2” is 3.1 nM.
